According to the nanobody polyreactivity screen of Harvey et al. (2022):

Assay: yeast display, Sf9 membrane polyspecificity reagent, FACS + sequencing; frameworks hold sequencing errors
Summary of the method: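 Synthetic nanobody libraries on Saccharomyces cerevisiae BJ5465 were galactose-induced for 36–48 hours, stained 1 hour at 4 °C with 10% biotinylated, detergent-solubilized Sf9 membrane reagent and enriched on streptavidin microbeads. FACS then separated cells into low and high (top ~1%) gates by anti-HA (expression) and streptavidin (reagent binding) fluorescence. Genes were colony-PCR amplified, MiSeq 2 × 250 sequenced and CDR-length filtered. A clone's polyreactivity label is that of its gate of origin.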

Row | Sequence | polyreactivity (PSR sort gate)
1 | QVKLVESGGGLVQAGGILRLSCAASGSIIVGNPMGWYRQAPGKERELVAAISRSGGSTYYADSVKGRFTISRDIAKNTVYLQMNSLKPEDTEVYYCASVRKQASGVDYWGQGTQVPVSS | high polyreactivity
2 | QVKLVESGGGLVQAGGRLRLSCAASGFTCNVYAMGLYRQAPGKERELVADISGTGGSTYYADSVKGRFTISRDNAKNTVYLQMNSLKPEDTAVYYCSSGTRNFDFWGQGTQVTVSS | high polyreactivity
3 | QVKLVESGGGLVQAGGSLLLSCAASGRTFYRYAMGWYIQAPGKERELVARISSGGGTYYADSVKGRFTISRDNAKNTVYLQMNSLKPEVTAVYYCNADVYRWSGSYTGWDSWHDYWGQGTQVSVSS | low polyreactivity
4 | QVKLVESGGGLVQAGGSLRLSCAASGFIFPDYAMGWYRQAPGKERELVAAITSSGGRTYYADSVKGRFTISRDNAKNTVYLQMNSLKPEDTAVYYCAARTISPRGYGSDYWGQGTQVTVSS | high polyreactivity
5 | QVKLVESGGGLVQAGGSLRLSCAASGFIFSNNAMGWYRQAPGKERELVAAITSSGGRTYYADSVKGRFTISRDYAKNTVYLQMNSLKPEDSSVYYCAAARYDIMGYWGLGTQVTVSS | high polyreactivity
6 | QVKLVESGGGLVQAGGSLRLSCAASGFTFTWYVMGWYRQAPGKESELVAAISRSGGSKYYADSVKGRFTISRDNAKNTVYLQMNRLKPEDTAVYYCADVGTSSYDYWGQGTQVTVSS | high polyreactivity
7 | QVKLVESGGGLVQAGGSLRLSCAASGGTFTLYAMGWYRQAPGKERELVAAISTSGGSTYYADSVKGRFTISRDNAKNTVYLQMNSLKPEDTAVYYCAAVTRYAGRIRYGYWGQGTQVTVSS | high polyreactivity
8 | QVKLVESGGGLVQAGGSLRLSCAASGIIFTFYSMGRYRQAPGKERELVAAITGSGGSTYYADSVKGRFTISRDNAKNSVYLQMNSLKPEDTAVYYCAADGPYGYYYGHYGYWGHGTQVTVSS | low polyreactivity
9 | QVKLVESGGGLVQAGGSLRLSCAASGITFVSYAMGWYTQAPGKEREFVAAINRSGGSTYYADSVKGRFTISRDNAKNTVYLQMNSLKPEDTAVYYCAARRNLAYYHSGYWGQGTQVTVSS | high polyreactivity
10 | QVKLVESGGGLVQAGGSLRLSCAASGLTFATYAMGWYREAPGKERELVAAISYSGDSTYYADSVKGRFTISRDNAKNTVYLQMNSLKPEDTAVYYCAKRLKRYRSSYKTFKLDYWGQGTQVTVSS | high polyreactivity
11 | QVKLVESGGGLVQAGGSLRLSCAASGNIFRRYTMGWYRQAPGKERELVAAISSGGSTNYADSEKGRFTISRDNAKNTVYLQMNSLKPEDTAVYYCAVSYRSFRYYWERYYSWGQGTQVTVSS | high polyreactivity
12 | QVKLVESGGGLVQAGGSLRLSCAASGRIFVSKAMGWYRQAPGKERELVAAISKRGASTYYADSVKGRFTISRDKAKNPVYLQINSLKPEDTEVYYCNVVTTGGPNYDYWGQGTQVTVSS | high polyreactivity
13 | QVKLVESGGGLVQAGGSLRLSCAASGRTFRYNAMGWYRQEPGEERELVASITSGGSTNYADSVKGRFTISRDNAKNTVYLQMNRLKPEDTAVYYCAADERRPYWQHCIGSGRPFDYWGQGTQVTVSS | low polyreactivity
14 | QVKLVESGGGLVQAGGSLRLSCAASGRTFVWNAMGWYRQAPGKERELVAAISSSGTSTYYADSVKGRFTISRDNAKNTVYLQMNSQKPEDTAVYYCAKDLLYQPTIRDYWGQGTQVTVSS | low polyreactivity
15 | QVKLVESGGGLVQAGGSLRLSCPASGSTFVLNAMGWYRQAPGKERELVAAITWSGASTYYADSVKGRFTISRDNAKNTVYLQMNSLKPEDTAVYYCANDIPTDYKDVNYWGQGTQVTVSS | low polyreactivity
16 | QVKLVESGGGLVQAGGSLRLSCSASGSIITHNTMVWYRQAPGKERELVASIDSGASTNYADSVKWRFTISRDNAKNSVYLLMNSLKPEDTAVYYCAADDANFRYRDDYWGQGTQVTVSS | low polyreactivity

Row | Sequence | polyreactivity (PSR sort gate)
17 | QVKLVESGGGLVQAGGSLRLSFAASGSIFFIYAMGWYRQETGKERELVASINSGGTTSNADSVKGRFTISRDNAKNTVYLQLNSLKPADTAVYYCATRGIVGILDSLSEEYYYWGQGTQVSVSS | low polyreactivity
18 | QVKLVESGGGLVQAGGSLRLSSDASGSIFLYNAMGWYRQAPGKERELVADISWSGGSTYYADSVKGRFTISRVNEKYTVYLQMNSLKPEDTAVYYCNAVVYWFSTSYVYTYDYWGQGTQVTVSS | high polyreactivity
19 | QVKLVESGGGLVQAGRSLRLSFAASGSTFLYYGMGWYRQAPGKERELVATITWRGGRTYYADSVKGRFTISRDNAKNTVYLQMNSLKPEDTAVYYCAARVVGSYRKPYPYGLYYWGQGTQVTVSS | high polyreactivity
20 | QVKLVESGGRLVQAGGSLRLSCAASGRNFYNYAMGWYRQAPGKERELVAAISKSGGRTYYADSVKGRFTISRDNAKNTVYLQMNSLKPEDTAVYYCAAEPFIPDQSRYYYWGQGSQVTVSS | high polyreactivity
21 | QVKLVESGGRLVQAGGSLRLSCAASGSIFYYYAMGWYRQAPVKERELVAAITNYADSVKGRFTISRDNAKNTVYLQMNSLKPEDTAVYYCAADWWRVEMDYWGQGTQVTVSS | low polyreactivity
22 | QVKLVESGGVLVQAGGSLRLSCAASGRIFGTYAMGWYRQAPGKERELVASISYSDGSTYADSVKGRFTISRDNAKNTVYLQMNSLKPEDTAVYYCAADVYYYAQCEDGYWGQGTQVTVSS | low polyreactivity
23 | QVKLVESGRGLVQAGGSLRVSCAASGRIFQRYVMGWYRQAPGKERELVAAITWSGGSTYADSVKGRFTISRDNAKNTVYLQMNSLKTEDTAVYYCAARVPYNYWGMYYLYDYWGQGTQVTVSS | high polyreactivity
24 | QVKLVESGVGLVKAGVSLRLSSAASGFTFYSYAMGCYRQAPGKESELVAAISWSGSRTYYADSVKGRFTISRDNAKNTVYLQMNSLKPEDTGVYYCAAYSYVRYSSWSDYWGLGTQVTVSS | high polyreactivity
25 | QVKLVESRGGLVQAGGSLRLSCAASARIFVHNAKGCYRQAPGKAREFDAAITRRGGSTYADSVKGRFRISRDNAKNTVYLQMTSLKPEDTAVYYCNAESYYGIFRYNYDYWGQGTQVTVSS | high polyreactivity
26 | QVKLVETGGGLVQAGGSLRLSCAASGFIFYKYAMGWYRQAPGKERELVASITSGGITNYADSVKGRFTISRDNAKNTVYLQMNSLKPVDTAVYYCNVRWYSRWLITTDYNYWGQGTQVTVSS | high polyreactivity
27 | QVKRVESGGGLVQAGGSLRLSCAASGIMFSPNDMGRFRQGPGKERELVARITTDGSSTYYADSVKGRFTISRDNAKNTVYLQINSLKPEDTAVYSCNADQLWYSLFDYWGQGTLVTVSS | high polyreactivity
28 | QVLIVESGGGLVQAGGSLRLSCADSGLTLAHYTMGWYRQSPGKERELVAAITFSGGRTYYADSVKGRFTISRDNAKNTVYLQMNSLKPEDTAVYYCNDEYQWGGYGYDYWGQGTQVTVSS | low polyreactivity
29 | QVLLEESGGGLVQAGGSLRLSCAASGRIFLRKVMGWYRQAPGKERELVAAISLSGASTYYADSVKGRFTISRDNAKNTVYLQMNCLKPEDTAVYYCAADITILYDYWGQGTQVTVSS | low polyreactivity
30 | QVLLQESGGGLVQAGGSLRLSCAASGNIFSAGGMGWYRQAPVNERELVAGIGTGTSTNYADSVKGRFTISRDNAKNTVYLQMNILKPEDTAVYYCAAAYYSGLSHWYWGQGTQVTVSS | low polyreactivity
31 | QVLLQESGGGLVQAGGSLRLSCAASGNIFSAGGMGWYRQAPVNERELVAGIGTGTSTNYADSVKGRFTISRDNAKNTVYLQMTSLKPEVTAVYYCAAAYYSGLSHWYWGQGTQVTVSS | low polyreactivity
32 | QVLLQESGGGLVQAGGSLRLSCAASGNIFSAGGMGWYRQAPVNERELVAGIGTGTSTNYADSVKGRFTISRDNANNTVYLQMNSLKPEDTAVYYCAAAYYSGLSHWYWGQGTQVTVSS | low polyreactivity
